The values that follow come from US20220041746A1 (Sanofi, published 2022).

Experiment [1] has as its target human CD38 (Cambridge Biologics LLC Cat #03-01-0369) (human, UniProt P28907 43-300). The experiment is described as follows: ELISA on coated hCD38-His. The protocol:
The binding properties of the purified antibodies were analyzed either using ELISA or SPR methods. For ELISA, corresponding antigens for each binding site in the trispecific binding protein were used to coat a 96-well Immuno Plate (Nunc 439454, Thermo Fisher Scientific) overnight at 4° C. using 2 μg/ml each antigen m PBS(pH7.4). The coated plate was blocked using 5% skim milk 12% BSA in PBS for one hour at RT, followed by washing with PBS+[…] three times (Aqua Max 400, Molecular Devices). Serial dilution of antibodies (trispecific and control Abs) were prepared and added onto the ELISA plates (100 μl/well in duplicate), incubated at RT for one hour, followed by washing 5 times with PBS+0.25% Tween 20.
The reaction was terminated by adding 50 μl 1M H₂SO₄, and OD₄₅₀ was measured using SpectraMax M5 (Molecular Devices) and analyzed using SoltMax Pro6.3 software (Molecular Devices). The final data was transferred to GraphPad Prism software (GraphPad Software, CA. USA), and plotted as shown. EC50 was calculated using the same software.
On the technique in general: In an ELISA, binding on a coated surface is turned into a signal by an enzyme label.

Experiment [2] concerns the target T1, human CD38 expressed on the cell surface (human, UniProt P28907 1-300).
T1 construct: whole, on cells; also called hCD38-expressing cells; huCD38
As to the kind of experiment: flow cytometry on 300.19 huCD38 cells (PréB hCD38). As to the method:
(§1) The recombinant cell line was described by J. Deckket et al. 2014 Clin. Cancer Res 20:4574-4583. […] Antibody binding was evaluated after centrifugation and resuspension of cells by adding 200 μl/well PBS 1% BSA and read using Guava® easyCyte™ 8HT Flow Cytometry System. Apparent KD and EC50 values were estimated using BIOST®T-BINDING and BIOST®T-SPEED software, respectively.
(In flow cytometry, cells or beads pass a laser one at a time.)

In experiment [3] the target is T2, cynomolgus monkey CD38 expressed on the cell surface (cynomolgus monkey, UniProt Q5VAN0 1-301).
T2 construct: whole, on cells; also called cCD38-expressing cells
As to the kind of experiment: flow cytometry on 300.19 cynoCD38 cells (PréB cCD38). The protocol:
as §1

Experiment [4] concerns the target T3, recombinant human CD38 (SPR of Example 4) (human, UniProt P28907 45-300, limits assumed). As to the kind of experiment: SPR; KD rounded to an integer; first value of the pair, taken for CD3mid. (In SPR one partner is held on a chip, and binding of the other changes the refractive index at the surface.)
For experiment [5], the target named is T3, recombinant human CD38 (SPR of Example …). As to the kind of experiment: SPR (column 'KD value against rec. protein by SPR (nM)'); first value of the pair, taken for CD3mid.
For experiment [6], the target named is T1, human CD38 expressed on the cell surface. The experiment is described as follows: flow cytometry, 'Apparent KD value against rec. cells by FACS (nM)'; single value of the mid/low row, equal to the EC50 of the CD3mid protein in FIG. 6B. The protocol: as §1
The target in experiment [7] is human CD28 (SPR of Example 4) (human, UniProt P10747 19-152, limits assumed). The experiment is described as follows: SPR, mono-, bi- and trispecific formats (FIG. 5).
Experiment [8] concerns the target T4, hCD38-his (SEQ ID NO: 2) (human, UniProt P28907 45-300).
T4 construct: His-tagged soluble protein derived from isoform A; also called human CD38-histag; hCD38::Histag
The experiment is described as follows: ELISA (column ELISA EC50 nM, hu).

The target of experiment [9] is T5, cCD38-his (SEQ ID NO: 4) (cynomolgus monkey, UniProt Q5VAN0 46-301).
T5 construct: His-tagged soluble protein; also called cyno CD38-histag; cynoCD38::Histag
The experiment is described as follows: ELISA (column ELISA EC50 nM, cyno).

For experiment [10], the target named is T1, human CD38 expressed on the cell surface. As to the kind of experiment: flow cytometry (column FACS EC50 nM, hu). As to the method: (§2) The recombinant cell line was described by J. Deckket et al. 2014 Clin Cancer Res 20:4574-4583. […] Antibody binding was evaluated after centrifugation and resuspension of cells by adding 200 μL/well PBS 1% BSA and read using Guava® easvCyte™ 8HT Flow Cytometry System. Apparent KD and EC50 values were estimated using BIOST@T-BINDING and BIOST@T-SPEED software, respectively.

For experiment [11] the target is unchanged. As to the kind of experiment: flow cytometry on preB::300.19 cells, apparent KD. The protocol: as §2
Experiment [12] deals with T2, cynomolgus monkey CD38 expressed on the …. The experiment is described as follows: flow cytometry on preB::300.19 cells, apparent KD. As to the method: as §2
Experiment [13] has the same target. As to the kind of experiment: flow cytometry (column FACS EC50 nM, cyno). As to the method:
as §2

The target of experiment [14] is T4, hCD38-his (SEQ ID NO: 2). The experiment is described as follows: SPR, mAb captured via anti-human Fc, soluble CD38-his injected. As to the method:
(§3) The binding properties of the anti-huCD38 mabs were evaluated using a BIAcore 2000 (BIAcore Inc., Uppsala, Ni). […] The surface was regenerated between injections using 30 μL of 50 mM NaOH-1 M NaCl. Individual sensorgrams wore analyzed using BIAsimulation software.

The target of experiment [15] is T5, cCD38-his (SEQ ID NO: 4). Described as above. As to the method:
as §3

Changes are numbered by the printed parent chain. Values joined by “and” are separate entries in the source; they are usually repeats but may differ in a detail not shown here. Identical values can stand only once.

B1: CD38VH1×CD28sup×CD3mid IgG4 (other)
VH 1: QVQLVQSGAEVVKPGASVKVSCKASGYTFTSYAMHWVKEAPGQRLEWIGYIYPGQGGTNYNQKFQGRATLTADTSASTAYMELSSLRSEDTAVYFCARTGGLRRAYFTYWGQGTLVTVSS
VL 1: DIVLTQSPATLSLSPGERATISCRASQSVSSYGQGFMHWYQQKPGQPPRLLIYGASSRATGIPARFSGSGSGTDFTLTISPLEPEDFAVYYCQQNKEDPWTFGGGTKLEIK
VH 2: QVQLVQSGAEVVKPGASVKVSCKASGYTFTSYYIHWVRQAPGQGLEWIGSIYPGNVNTNYAQKFQGRATLTVDTSISTAYMELSRLRSDDTAVYYCTRSHYGLDWNFDVWGKGTTVTVSS
VL 2: DIQMTQSPSSLSASVGDRVTITCQASQNIYVWLNWYQQKPGKAPKLLIYKASNLHTGVPSRFSGSGSGTDFTLTISSLQPEDIATYYCQQGQTYPYTFGQGTKLEIK
VH 3: QVQLVESGGGVVQPGRSLRLSCAASGFTFTKAWMHWVRQAPGKQLEWVAQIKDKSNSYATYYADSVKGRFTISRDDSKNTLYLQMNSLRAEDTAVYYCRGVYYALSPFDYWGQGTLVTVSS
VL 3: DIVMTQTPLSLSVTPGQPASISCKSSQSLVHNNANTYLSWYLQKPGQSPQSLIYKVSNRFSGVPDRFSGSGSGTDFTLKISRVEAEDVGVYYCGQGTQYPFTFGSGTKVEIK
notes: also called anti-CD38(VH1)×CD28(sup)×CD3(mid)
Usually EC50 (read off the curve) stands for the concentration that produces a half-maximal response. As a reminder, the EC50 is the concentration giving half of the maximal effect. With B1, the 50% effective concentration (EC50 (read off the curve)) in [1] is approximately 3000 pM. Further, the EC50 in experiment [2] is 11 nM and 1.67 µg/mL; in experiment [3], 17 nM and 2.53 µg/mL. In addition, the results for the Kd in experiment [4], in experiment [5] and in experiment [6] were 4 nM, 4 nM and 11 nM, respectively.

B2: anti-CD28sup antigen binding domain (antibody, V domains shown)
VH: B1 VH 2
VL: B1 VL 2
notes: also called super agonist, "sup"
Regarding B2, in experiment [7], the binding result was “binds”.

B3: mAb4 (antibody, human IgG1, kappa, V domains shown)
VH: B1 VH 1 with P14S, Y32F, A33N, R44G, Q55N, L83I
VL: DIVLTQSPATLSLSPGERATISCRASESVDSYGNGFMHWYQQKPGQPPRLLIYLASSRATGIPARFSGSGSGTDFTLTISPLEPEDFAVYYCQQNKEDPWTFGGGTKLEIKR
notes: also called antiCD38_C2-CD38-1_VH5-VL3
As a reminder, the koff is the rate constant with which the complex falls apart. As to B3, the concentration giving a half-maximal response (EC50) in the experiment with hCD38-his (SEQ ID NO: 2) [8] is 0.16 nM; in the experiment with cCD38-his (SEQ ID NO: 4) [9], 0.17 nM; in experiment [10], 0.55 nM; in experiment [13], 1.15 nM. Further, the Kd came to 0.33 nM in [11], 1.15 nM in experiment [12], 0.822 nM with hCD38-his (SEQ ID NO: 2) [14] and 1.14 nM in the experiment with cCD38-his (SEQ ID NO: 4) [15]. For the same molecule, the koff was determined as 0.000529 s⁻¹ in the experiment with hCD38-his (SEQ ID NO: 2) [14] and 0.000201 s⁻¹ with cCD38-his (SEQ ID NO: 4) [15].

B4: mAb2xCD28supxCD3mid IgG1 NNSA (other)
heavy 1: QVQLVQSGAEVVKPGASVKVSCKASGYTFTSYYIHWVRQAPGQGLEWIGSIYPGNVNTNYAQKFQGRATLTVDTSISTAYMELSRLRSDDTAVYYCTRSHYGLDWNFDVWGKGTTVTVSSSQVQLVESGGGVVQPGRSLRLSCAASGFTFTKAWMHWVRQAPGKQLEWVAQIKDKSNSYATYYADSVKGRFTISRDDSKNTLYLQMNSLRAEDTAVYYCRGVYYALSPFDYWGQGTLVTVSSRTASTKGPSVFPLAPSSKSTSGGTAALGCLVKDYFPEPVTVSWNSGALTSGVHTFPAVLQSSGLYSLSSVVTVPSSSLGTQTYICNVNHKPSNTKVDKKVEPKSCDKTHTCPPCPAPELLGGPSVFLFPPKPKDTLMISRTPEVTCVVVDVSHEDPEVKFNWYVDGVEVHNAKTKPREEQYNNASRVVSVLTVLHQDWLNGKEYKCKVSNKALPAPIEKTISKAKGQPREPQVCTLPPSRDELTKNQVSLSCAVKGFYPSDIAVEWESNGQPENNYKTTPPVLDSDGSFFLVSKLTVDKSRWQQGNVFSCSVMHEALHNHYTQKSLSLSPG
light 1: DIVMTQTPLSLSVTPGQPASISCKSSQSLVHNNANTYLSWYLQKPGQSPQSLIYKVSNRFSGVPDRFSGSGSGTDFTLKISRVEAEDVGVYYCGQGTQYPFTFGSGTKVEIKGQPKAAPDIQMTQSPSSLSASVGDRVTITCQASQNIYVWLNWYQQKPGKAPKLLIYKASNLHTGVPSRFSGSGSGTDFTLTISSLQPEDIATYYCQQGQTYPYTFGQGTKLEIKTKGPSRTVAAPSVFIFPPSDEQLKSGTASVVCLLNNFYPREAKVQWKVDNALQSGNSQESVTEQDSKDSTYSLSSTLTLSKADYEKHKVYACEVTHQGLSSPVTKSFNRGEC
heavy 2: QVQLVQSGAEVVKPGASVKVSCKASGYTFTSYAMHWVKEAPGQRLEWIGYIYPGQGGTNYNQKFQGRATLTADTSASTAYMELSSLRSEDTAVYFCARTGGLRRAYFTYWGQGTLVTVSSASTKGPSVFPLAPSSKSTSGGTAALGCLVKDYFPEPVTVSWNSGALTSGVHTFPAVLQSSGLYSLSSVVTVPSSSLGTQTYICNVNHKPSNTKVDKKVEPKSCDKTHTCPPCPAPELLGGPSVFLFPPKPKDTLMISRTPEVTCVVVDVSHEDPEVKFNWYVDGVEVHNAKTKPREEQYNNASRVVSVLTVLHQDWLNGKEYKCKVSNKALPAPIEKTISKAKGQPREPQVYTLPPCRDELTKNQVSLWCLVKGFYPSDIAVEWESNGQPENNYKTTPPVLDSDGSFFLYSKLTVDKSRWQQGNVFSCSVMHEALHNHYTQKSLSLSPG
light 2: DIVLTQSPATLSLSPGERATISCRASQSVSSYGQGFMHWYQQKPGQPPRLLIYGASSRATGIPARFSGSGSGTDFTLTISPLEPEDFAVYYCQQNKEDPWTFGGGTKLEIKRTVAAPSVFIFPPSDEQLKSGTASVVCLLNNFYPREAKVQWKVDNALQSGNSQESVTEQDSKDSTYSLSSTLTLSKADYEKHKVYACEVTHQGLSSPVTKSFNRGEC
notes: also called CD38VH1×CD28sup×CD3mid IgG1 NNAS
With B4, in [1], the binding result is “binds”.

B5: anti-CD28cvn antigen binding domain (antibody, V domains shown)
VH: QVQLQESGPGLVKPSQTLSLTCTVSGFSLSDYGVHWVRQPPGKGLEWLGVIWAGGGTNYNPSLKSRKTISKDTSKNQVSLKLSSVTAADTAVYYCARDKGYSYYYSMDYWGQGTTVTVSS
VL: DIVLTQSPASLAVSPGQRATITCRASESVEYYVTSLMQWYQQKPGQPPKLLIFAASNVESGVPARFSGSGSGTDFTLTINPVEANDVANYYCQQSRKVPYTFGQGTKLEIK
notes: also called anti-CD28evn; conventional agonist, "cvn"
On to B5, for which the binding result in experiment [7] is on record as “binds”.
